According to patent publication US20060009379A1 (GOVERNMENT OF THE UNITED STATES OF AMERICAN AS REPRESENTED …, published 2006):
Blank lines part the entries; values can stand above or below the binder they belong to.

Biological target: T1, GST-p53 fusion protein (UniProt P04637 1-393)
T1 construct: not shown: glutathione S-transferase (GST) fusion partner
Test: GST-p53 pull-down of HA-tagged protein from H1299 lysate, α-HA Western blot
Description: FIG. 6F is a digital image of mapping of p53-interacting region in nucleostemin by GST pull-down assay. […] The retained proteins (bound) were detected by α-HA Western blot and expressed as ratios to the input.
To map the interacting region between nucleostemin and p53, HA-tagged mutant proteins were expressed in H1299 cells and incubated with agarose-bound GST-p53 fusion protein in GST pull-down experiments. The amount of mutant proteins retained by GST-p53 fusion was measured by Western blot and presented as the ratio to the input proteins.

T1 sequence (P04637 whole entry, the tested form may be a part): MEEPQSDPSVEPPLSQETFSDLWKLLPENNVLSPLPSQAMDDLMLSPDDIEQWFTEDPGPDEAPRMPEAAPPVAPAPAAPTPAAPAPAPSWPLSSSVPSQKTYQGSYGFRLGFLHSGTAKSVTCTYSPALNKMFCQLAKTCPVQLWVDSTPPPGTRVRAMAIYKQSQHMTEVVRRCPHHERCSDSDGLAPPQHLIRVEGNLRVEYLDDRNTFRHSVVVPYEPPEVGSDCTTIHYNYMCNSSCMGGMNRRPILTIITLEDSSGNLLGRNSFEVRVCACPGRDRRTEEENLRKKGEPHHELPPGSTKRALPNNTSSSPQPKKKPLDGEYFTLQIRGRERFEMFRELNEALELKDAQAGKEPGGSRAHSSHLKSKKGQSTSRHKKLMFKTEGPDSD

fold reduction of the amount bound, against wild-type nucleostemin: 1.5 fold
B1: HA-tagged nucleostemin mutant dA (deletion of the acidic domain, codons 460-503) (other)
chain: MKRPKLKKASKRMTCHKRYKIQKKVREHHRKLRKEAKKRGHKKPKKDPGVPNSAPFKEALLREAELRKQQLEELKQQQKLDRQKEQERKRKLEISPDDEQSNVETQEESDEPKIKKAKSGKQNPKKLHCQELKKVIEASDIVLEVLDARDPLGCRCPQVEEAVIQSGCKKLVLVLNKSDLVPKENLENWLTYLNKELPTVVFKASTNLKNRKKTFKIKKKVVPFQSKLCCGKEALWKLLGGFQQSCGKGVQVGVVGFPNVGKSSIINSLKQERICSVGVSMGLTRSMQIVPLDKQITIIDSPCFIISPCNSPAALALRSPASIEVLRPLEAASAILSQADSQQVVLKYTVPGYKDSLDFFTKLAQRRGLHQKGGSPNVESAAKLLWSEWTGASLGYYCHPPASWNHSPHFNENITAIMKRGFNLEELEKNNAHSIQVLKGPHLTNKILFRSSGLTNGILMSPGQSTASKPSDRSFILDKMSEEDDAYDFTTDYI
notes: not shown: HA (hemagglutinin) tag

fold increase of the amount bound, against wild-type nucleostemin: 1.5 fold
B2: HA-tagged nucleostemin mutant dG4 (deletion of the G4 GTP-binding motif, codons 177-180) (other)
chain: MKRPKLKKASKRMTCHKRYKIQKKVREHHRKLRKEAKKRGHKKPKKDPGVPNSAPFKEALLREAELRKQQLEELKQQQKLDRQKEQERKRKLEISPDDEQSNVETQEESDEPKIKKAKSGKQNPKKLHCQELKKVIEASDIVLEVLDARDPLGCRCPQVEEAVIQSGCKKLVLVLNVPKENLENWLTYLNKELPTVVFKASTNLKNRKKTFKIKKKVVPFQSKLCCGKEALWKLLGGFQQSCGKGVQVGVVGFPNVGKSSIINSLKQERICSVGVSMGLTRSMQIVPLDKQITIIDSPCFIISPCNSPAALALRSPASIEVLRPLEAASAILSQADSQQVVLKYTVPGYKDSLDFFTKLAQRRGLHQKGGSPNVESAAKLLWSEWTGASLGYYCHPPASWNHSPHFNENITAIMKRGFNLEELEKNNAHSIQVLKGPHLTNKILFRSSGLTNGILEEKDIPEESPKQTEDQQDGDDQEHVTGEKNAEISDVTPVEETREMSPGQSTASKPSDRSFILDKMSEEDDAYDFTTDYI
notes: as for B1

fold reduction of the amount bound, against wild-type nucleostemin: 1.5 fold
B3: HA-tagged nucleostemin mutant dCC (deletion of the coiled-coil domain, codons 61-87) (other)
chain: MKRPKLKKASKRMTCHKRYKIQKKVREHHRKLRKEAKKRGHKKPKKDPGVPNSAPFKEALRKRKLEISPDDEQSNVETQEESDEPKIKKAKSGKQNPKKLHCQELKKVIEASDIVLEVLDARDPLGCRCPQVEEAVIQSGCKKLVLVLNKSDLVPKENLENWLTYLNKELPTVVFKASTNLKNRKKTFKIKKKVVPFQSKLCCGKEALWKLLGGFQQSCGKGVQVGVVGFPNVGKSSIINSLKQERICSVGVSMGLTRSMQIVPLDKQITIIDSPCFIISPCNSPAALALRSPASIEVLRPLEAASAILSQADSQQVVLKYTVPGYKDSLDFFTKLAQRRGLHQKGGSPNVESAAKLLWSEWTGASLGYYCHPPASWNHSPHFNENITAIMKRGFNLEELEKNNAHSIQVLKGPHLTNKILFRSSGLTNGILEEKDIPEESPKQTEDQQDGDDQEHVTGEKNAEISDVTPVEETREMSPGQSTASKPSDRSFILDKMSEEDDAYDFTTDYI
notes: as for B1

binding of nucleostemin to p53 (retained protein, ratio to input): 17%
B4: HA-tagged nucleostemin mutant dB (deletion of the basic domain, codons 2-46) (other)
chain: MDPGVPNSAPFKEALLREAELRKQQLEELKQQQKLDRQKEQERKRKLEISPDDEQSNVETQEESDEPKIKKAKSGKQNPKKLHCQELKKVIEASDIVLEVLDARDPLGCRCPQVEEAVIQSGCKKLVLVLNKSDLVPKENLENWLTYLNKELPTVVFKASTNLKNRKKTFKIKKKVVPFQSKLCCGKEALWKLLGGFQQSCGKGVQVGVVGFPNVGKSSIINSLKQERICSVGVSMGLTRSMQIVPLDKQITIIDSPCFIISPCNSPAALALRSPASIEVLRPLEAASAILSQADSQQVVLKYTVPGYKDSLDFFTKLAQRRGLHQKGGSPNVESAAKLLWSEWTGASLGYYCHPPASWNHSPHFNENITAIMKRGFNLEELEKNNAHSIQVLKGPHLTNKILFRSSGLTNGILEEKDIPEESPKQTEDQQDGDDQEHVTGEKNAEISDVTPVEETREMSPGQSTASKPSDRSFILDKMSEEDDAYDFTTDYI
notes: as for B1
